The values below come from patent publication US7563760 (GENETICS INSTITUTE, dated 2009).

For assay [1], the target named is T1, P-selectin expressed on the surface of CHO cells (CHO:P-selectin cell line) (UniProt P16109 42-830, limits assumed).
T1 construct: whole, on cells; also called P-selectin expressing CHO cells
T1 sequence (looked up): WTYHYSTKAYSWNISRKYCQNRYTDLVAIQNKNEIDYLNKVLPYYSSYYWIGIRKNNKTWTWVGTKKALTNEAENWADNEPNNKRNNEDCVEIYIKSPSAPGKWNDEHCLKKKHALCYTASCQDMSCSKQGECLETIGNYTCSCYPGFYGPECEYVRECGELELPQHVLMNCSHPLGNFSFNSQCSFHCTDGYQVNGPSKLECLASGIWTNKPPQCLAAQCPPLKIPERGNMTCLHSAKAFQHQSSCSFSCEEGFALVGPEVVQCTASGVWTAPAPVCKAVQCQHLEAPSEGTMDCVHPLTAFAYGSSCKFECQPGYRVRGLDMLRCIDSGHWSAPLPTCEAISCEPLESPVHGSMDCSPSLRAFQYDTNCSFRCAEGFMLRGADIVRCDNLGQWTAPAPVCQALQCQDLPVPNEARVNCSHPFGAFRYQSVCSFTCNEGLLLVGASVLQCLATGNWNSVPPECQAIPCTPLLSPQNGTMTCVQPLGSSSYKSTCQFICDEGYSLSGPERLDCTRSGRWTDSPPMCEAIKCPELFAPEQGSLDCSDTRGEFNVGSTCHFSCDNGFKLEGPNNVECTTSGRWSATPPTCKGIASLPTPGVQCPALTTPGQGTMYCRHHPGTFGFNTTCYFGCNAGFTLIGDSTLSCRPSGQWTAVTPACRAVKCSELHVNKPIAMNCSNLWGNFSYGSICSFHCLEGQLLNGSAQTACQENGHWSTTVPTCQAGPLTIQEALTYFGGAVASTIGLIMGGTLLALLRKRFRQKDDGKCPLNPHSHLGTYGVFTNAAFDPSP
The assay is described as follows: plate coated with chimera; adhesion of CHO:P-selectin cells (FIG. 19). The method, then:
(§1) Quantitative adhesion of CHO:P-selectin, CHO:E-selectin and CHO:L-selectin expressing cells was performed as described in Example 4(c), with the following modifications: COS cell and antibodies were omitted. Instead, 48-well microtiter plates (Costar) were coated for 16 hours at 4° C. with varying quantities of protein A-purified soluble PSGL-1/Fc chimeras. The unbound material was removed and the coated wells were treated with Hank's buffered saline (HBS) with 1 mg/ml BSA and 2 mM CaCl_2 for 1 hour at 4° C. Tritium labeled CHO selectin expressing cells were added and binding quantitated as described in Example 4(c).

Assay [2] concerns the target T2, E-selectin expressed on CHO cells (CHO:E-selectin) (UniProt P16581 22-610, limits assumed).
T2 construct: whole, on cells; also called E-selectin expressing CHO cells; CHO cells which express E-selectin
T2 sequence (looked up): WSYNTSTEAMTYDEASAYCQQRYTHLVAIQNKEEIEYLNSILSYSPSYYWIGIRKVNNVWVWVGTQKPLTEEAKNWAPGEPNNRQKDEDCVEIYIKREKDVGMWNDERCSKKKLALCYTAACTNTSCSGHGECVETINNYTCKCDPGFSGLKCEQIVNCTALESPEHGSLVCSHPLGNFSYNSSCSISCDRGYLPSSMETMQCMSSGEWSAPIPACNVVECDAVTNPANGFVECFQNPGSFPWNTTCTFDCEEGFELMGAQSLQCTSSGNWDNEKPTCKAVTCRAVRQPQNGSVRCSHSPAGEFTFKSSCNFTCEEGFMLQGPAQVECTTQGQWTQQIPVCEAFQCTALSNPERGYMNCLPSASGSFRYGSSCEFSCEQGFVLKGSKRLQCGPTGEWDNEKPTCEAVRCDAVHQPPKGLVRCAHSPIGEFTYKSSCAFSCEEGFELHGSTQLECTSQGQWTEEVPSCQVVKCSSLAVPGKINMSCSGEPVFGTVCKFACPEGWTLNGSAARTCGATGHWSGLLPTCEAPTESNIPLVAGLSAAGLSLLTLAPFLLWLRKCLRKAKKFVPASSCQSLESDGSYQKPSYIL
Nature of the assay: plate coated with chimera; adhesion of CHO:E-selectin cells (FIG. 20). The method, then: as §1

Assay [3] addresses T1, P-selectin expressed on the surface of …. Nature of the assay: plate coated with chimera; adhesion of 3H-labelled CHO:P-selectin cells (FIG. 14). On the procedure: as §1
Assay [4] has as its target T2, E-selectin expressed on CHO cells …. Nature of the assay: plate coated with chimera; adhesion of 3H-labelled CHO:E-selectin cells (FIG. 15). The method, then:
as §1

Assay [5] addresses T3, chimeric protein comprising the extracellular domain of human E-selectin and the Fc portion of human IgG1 … (human, UniProt P16581 22-556).
T3 construct: extracellular domain; Built analogously to LEC-γ1; also called soluble E-selectin chimera; immobilized E-selectin; not shown: Fc portion of human IgG1
T3 sequence (looked up): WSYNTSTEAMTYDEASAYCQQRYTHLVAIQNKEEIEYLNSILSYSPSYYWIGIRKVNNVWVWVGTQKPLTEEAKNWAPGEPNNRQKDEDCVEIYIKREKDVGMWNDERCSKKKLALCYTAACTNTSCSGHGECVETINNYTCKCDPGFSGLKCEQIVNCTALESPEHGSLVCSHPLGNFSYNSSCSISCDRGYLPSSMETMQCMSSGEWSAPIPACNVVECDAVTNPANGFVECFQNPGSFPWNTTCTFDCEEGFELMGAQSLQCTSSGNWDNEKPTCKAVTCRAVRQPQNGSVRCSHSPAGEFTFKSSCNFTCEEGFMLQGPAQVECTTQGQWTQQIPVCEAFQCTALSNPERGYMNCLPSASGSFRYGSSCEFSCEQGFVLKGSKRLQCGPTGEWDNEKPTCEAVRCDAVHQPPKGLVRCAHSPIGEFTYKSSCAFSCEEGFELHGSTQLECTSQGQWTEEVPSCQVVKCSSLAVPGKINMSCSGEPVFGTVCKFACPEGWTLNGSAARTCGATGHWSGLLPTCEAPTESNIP
Nature of the assay: affinity precipitation from U937 membrane extracts; trace capture not excluded by the filing.

B1: H24.Q70.148.Fc (Fc fusion)
chain: QATEYEYLDYDFLPETEPPEMLRHSTDTTPLTGPGTPESTTVEPAARRSTGLDAGGAVTELTTELANMGQLSTDSAAMEIQTTQPAATEAQTTPLAATEAQTTRLTATEAQTTPLAATEAQTTPPAATEAQTTQPTGLEAQTTAPAAM
modifications: glycosylated, co-expressed with 3/4FT
notes: also called pED.H24.Q70.148.Fc product; not shown: NotI junction/linker of pED.Fc; Fc region of a human IgG1
Turning to B1, the binding result in assay [1] and in assay [2] was “binds” each time.

B2: ΔY148.Fc, amino acids 42-189 of SEQ ID NO:2 with amino acids 46-52 deleted (Fc fusion)
chain: QATEFLPETEPPEMLRNSTDTTPLTGPGTPESTTVEPAARRSTGLDAGGAVTELTTELANMGNLSTDSAAMEIQTTQPAATEAQTTPLAATEAQTTRLTATEAQTTPLAATEAQTTPPAATEAQTTQPTGLEAQTTAPAAM
modifications: glycosylated, co-expressed with 3/4FT
notes: also called pED.ΔY148.Fc product; not shown: NotI junction/linker of pED.Fc; Fc region of a human IgG1
As to B2, the binding result was “no binding” in assay [3] and “binds” in assay [4].

B3: CD43 (leukosialin) of U937 cells (other, human, UniProt P16150 20-400, looked up)
chain: STTAVQTPTSGEPLVSTSEPLSSKMYTTSITSDPKADSTGDQTSALPPSTSINEGSPLWTSIGASTGSPLPEPTTYQEVSIKMSSVPQETPHATSHPAVPITANSLGSHTVTGGTITTNSPETSSRTSGAPVTTAASSLETSRGTSGPPLTMATVSLETSKGTSGPPVTMATDSLETSTGTTGPPVTMTTGSLEPSSGASGPQVSSVKLSTMMSPTTSTNASTVPFRNPDENSRGMLPVAVLVALLAVIVLVALLLLWRRRQKRRTGALVLSRGGKRNGVVDAWAGPAQVPEEGAVTVTVGGSGGDKGSGFPDGEGSSRRPTLTTFFGRRKSRQGSLAMEELKSGSGPSLKGEEEPLVASEDGAVDAPAPDEPEGGDGAAP
modifications: native myeloid glycosylation
Take B3: in assay [5], the binding result was “no binding”.
